Assay results from patent US20100254982A1 (VIVENTIA BIOTECHNOLOGIES, published 2010).

What was measured:
[1] = target: Glucose transporter 8 (GLUT8), cancer-associated variant expressed on the surface of cancer cells (VB1-050 antigen) (human) (UniProt Q9NY64); assay: cell-based or functional assay
[2] = target: Glucose transporter 8 (GLUT8), cancer-associated variant expressed on the surface of cancer cells (VB1-050 antigen) (human) (UniProt Q9NY64); assay: flow cytometry saturation curve on antigen-positive cells
[3] = target: T1, Glucose transporter 8 (GLUT8), cancer-associated variant expressed on the surface of cancer cells (VB1-050 … (human, UniProt Q9NY64 1-477)); assay: flow cytometry, rectum tumor cell lines Sw837, NCI-H630 (mean of 2)
T1 construct: whole, on cells; Endogenous antigen of human tumor cell lines, identified by immunoprecipitation with VB1-050 and mass spectrometry from HepG2 and MCF-7 membranes; Only L12A and L13A are printed with old and new residues; In the immunoprecipitations the membrane preparations were deglycosylated with N-Glycanase; also called VB1-050Ag; VB1-050 Ag
T1 sequence (looked up): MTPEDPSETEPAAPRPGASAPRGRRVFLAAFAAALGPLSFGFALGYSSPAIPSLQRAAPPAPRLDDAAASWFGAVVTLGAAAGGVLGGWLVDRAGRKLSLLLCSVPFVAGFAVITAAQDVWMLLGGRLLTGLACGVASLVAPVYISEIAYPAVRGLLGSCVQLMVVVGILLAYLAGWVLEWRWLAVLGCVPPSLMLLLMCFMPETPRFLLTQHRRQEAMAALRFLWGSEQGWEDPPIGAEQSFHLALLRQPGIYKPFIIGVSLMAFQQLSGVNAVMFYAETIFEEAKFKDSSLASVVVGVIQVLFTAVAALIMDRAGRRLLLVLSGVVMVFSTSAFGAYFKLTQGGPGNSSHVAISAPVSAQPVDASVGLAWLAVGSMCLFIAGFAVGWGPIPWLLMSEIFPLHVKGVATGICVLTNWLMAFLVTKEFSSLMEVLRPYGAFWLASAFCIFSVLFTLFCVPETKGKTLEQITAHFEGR

[4] = target: T1, Glucose transporter 8 (GLUT8), …; assay: flow cytometry on A-375 cells, surface-bound antibody left after 120 min at 37 °C (internalization experiment)
[5] = target: T1, Glucose transporter 8 (GLUT8), …; assay: flow cytometry, endometrium tumor cell lines RL-95-2, HEC-1-A (mean of 2)
[6] = target: T1, Glucose transporter 8 (GLUT8), …; assay: flow cytometry, pancreas tumor cell lines PANC-1, BxPC-3, MIA PaCa-2 (mean of 3)
[7] = target: T1, Glucose transporter 8 (GLUT8), …; assay: flow cytometry, kidney tumor cell lines Caki-1, A498, ACHN (mean of 3)
[8] = target: T1, Glucose transporter 8 (GLUT8), …; assay: flow cytometry, lung tumor cell lines A-549, NCI-H460, NCI-H69 (mean of 3)
[9] = target: T1, Glucose transporter 8 (GLUT8), …; assay: flow cytometry, breast tumor cell lines MCF-7, MDA-MB-231, MDA-MB-435S (mean of 3)
[10] = target: T1, Glucose transporter 8 (GLUT8), …; assay: flow cytometry, melanoma cell lines A-375, SK-MEL-5, SK-MEL-28 (mean of 3)
[11] = target: T1, Glucose transporter 8 (GLUT8), …; assay: flow cytometry, normal kidney cell line HRE
[12] = target: T1, Glucose transporter 8 (GLUT8), …; assay: flow cytometry, normal endothelial cell line HUVEC
[13] = target: T1, Glucose transporter 8 (GLUT8), …; assay: flow cytometry, normal breast cell line HMEC
[14] = target: T1, Glucose transporter 8 (GLUT8), …; assay: flow cytometry, prostate tumor cell lines DU-145, PC-3, LNCaP (mean of 3)
[15] = target: T1, Glucose transporter 8 (GLUT8), …; assay: flow cytometry, ovarian tumor cell lines SK-OV-3, OVCar-3 (mean of 2)
[16] = target: T1, Glucose transporter 8 (GLUT8), …; assay: flow cytometry, stomach tumor cell lines AGS, NCI-N-87, KATO III (mean of 3)
[17] = target: T1, Glucose transporter 8 (GLUT8), …; assay: flow cytometry, cervix tumor cell lines HeLa, C-41, C-33A (mean of 3)
[18] = target: T1, Glucose transporter 8 (GLUT8), …; assay: flow cytometry, bladder tumor cell lines UM-UC-3, T24 (mean of 2)
[19] = target: T1, Glucose transporter 8 (GLUT8), …; assay: flow cytometry, normal lung cell line NHLF
[20] = target: T1, Glucose transporter 8 (GLUT8), …; assay: flow cytometry on A-375 cells, surface-bound antibody left after 60 min at 37 °C (internalization experiment)
[21] = target: T1, Glucose transporter 8 (GLUT8), …; assay: flow cytometry titration on A-375 cells, Lineweaver-Burk method
[22] = target: T1, Glucose transporter 8 (GLUT8), …; assay: flow cytometry, normal prostate cell line PrEC
[23] = target: T1, Glucose transporter 8 (GLUT8), …; assay: flow cytometry on A-375 cells, cells kept on ice for 120 minutes; above negative control human IgG (4B5)
[24] = target: T1, Glucose transporter 8 (GLUT8), …; assay: flow cytometry, liver tumor cell lines SK-HEP-1, Hep-G2 (mean of 2)
[25] = target: T1, Glucose transporter 8 (GLUT8), …; assay: flow cytometry, colon tumor cell lines HT-29, SW480, WiDr (mean of 3)
[26] = target: T1, Glucose transporter 8 (GLUT8), …; assay: flow cytometry competition on antigen-positive cells; competitor VB6-050 fixed at 250 µg/mL, detected with anti-bouganin antibody
[27] = target: T1, Glucose transporter 8 (GLUT8), …; assay: flow cytometry, head & neck tumor cell lines SCC-15, SCC-25 (mean of 2)

B1: VB6-050 (soluble Fab-de-bouganin fusion protein derived from VB1-050) (Fab, V domains shown)
VH: EVQLLESGGDLVQPGGSLRLSCAASGFTFSNYAMSWVRQAPGKGLEWVSAITPSGGSTNYADSVKGRFTISRDNSQNTLYLQMNSLRVEDTAVYYCGRVPYRSTWYPLYWGQGTLVTVSS
VL: DIQMTQSPSSLSASVGDRVTITCRASQDISNYLAWFQRKPGKAPKSLIYAASSLHSKVPTQFSGSGSGTDFTLTISSLQPEDFATYYCLQYSTYPITFGGGTKVEIK
- IC50 (MTS cytotoxicity assay, 5 days, antigen-positive cells MB-435S) [1]: 400 nM
- saturation point [2]: 250 µg/mL

B2: VB1-050 monoclonal antibody (antibody, V domains shown)
VH: B1 VH
VL: DIQMTQSPSSLSASVGDRVTITCRASQDISNYLAWFQRKPGKAPKSLIYAASSLHSKVPTQFSGSGSGTDFTLTISSLQPEDFATYYCLQYSTYPITFGGGTKVEIKR
notes: also called VB1-050 IgG; parental IgG
- MF (mean fold increase in median fluorescence over control antibody) [3]: 15.2 fold
- Fold-increase in MF [4]: 39.3 fold
- MF (mean fold increase in median fluorescence over control antibody) [5]: 7 fold
- MF (mean fold increase in median fluorescence over control antibody) [6]: 7.6 fold
- MF (mean fold increase in median fluorescence over control antibody) [7]: 18.4 fold
- MF (mean fold increase in median fluorescence over control antibody) [8]: 14.8 fold
- MF (mean fold increase in median fluorescence over control antibody) [9]: 29.9 fold
- MF (mean fold increase in median fluorescence over control antibody) [10]: 22.7 fold
- MF (mean fold increase in median fluorescence over control antibody) [11]: 12.5 fold
- MF (mean fold increase in median fluorescence over control antibody) [12]: 5 fold
- MF (mean fold increase in median fluorescence over control antibody) [13]: 3.1 fold
- MF (mean fold increase in median fluorescence over control antibody) [14]: 19.6 fold
- MF (mean fold increase in median fluorescence over control antibody) [15]: 21.7 fold
- MF (mean fold increase in median fluorescence over control antibody) [16]: 9.6 fold
- MF (mean fold increase in median fluorescence over control antibody) [17]: 11.8 fold
- MF (mean fold increase in median fluorescence over control antibody) [18]: 9.8 fold
- MF (mean fold increase in median fluorescence over control antibody) [19]: 8.7 fold
- Fold-increase in MF [20]: 49.2 fold
- Kd [21]: 49 nM
- MF (mean fold increase in median fluorescence over control antibody) [22]: 2.1 fold
- Fold-increase in MF [23]: 129 fold
- MF (mean fold increase in median fluorescence over control antibody) [24]: 14.6 fold
- MF (mean fold increase in median fluorescence over control antibody) [25]: 13.3 fold
- IC50 [26]: 180 µg/mL
- MF (mean fold increase in median fluorescence over control antibody) [27]: 11.4 fold
